# Source: publication PMC3045582
# Like-named read-outs stand apart in the source and are kept apart here.
# T1: Hpy188I restriction endonuclease (native Met) (UniProt Q9KJ88 1-170)
# T1 sequence: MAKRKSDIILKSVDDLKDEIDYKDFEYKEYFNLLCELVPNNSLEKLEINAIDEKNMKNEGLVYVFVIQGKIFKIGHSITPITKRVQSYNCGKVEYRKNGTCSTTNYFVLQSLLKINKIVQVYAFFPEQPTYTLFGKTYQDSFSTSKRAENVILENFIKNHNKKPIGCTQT
# T2: Hpy188I restriction endonuclease (selenomethionine variant) (UniProt Q9KJ88 1-170)
# T2 sequence: T1 sequence
# B1: 9-mer target oligoduplex (uncleaved) (dsDNA)
# DNA 1: GATCTGAAC
# DNA 2: GTTCAGATC
# B2: 9-mer target oligoduplex cleaved in crystal at TCN|GA (product) (dsDNA)
# DNA 1: GATCT
# DNA 2: GAAC
# DNA 3: GTTCA
# DNA 4: GATC
# Tests used:
# [1] = biological target: T1, Hpy188I restriction endonuclease …; test: co-crystallization
# [2] = biological target: T2, Hpy188I restriction endonuclease …; test: X-ray crystallography
# [3] = biological target: T2, Hpy188I restriction endonuclease …; test: X-ray crystallography; remark: listed apart in the source
Binder,binding result [1],binding result [2],binding result [3]
B1,binds,binds,–
B2,–,–,binds
